The text below walks through data of patent US20020164702A1.

This assay addresses endogenous mouse MuSK on C2C12 myotubes or primary mouse myotubes (mouse) (UniProt Q61006). Briefly: cell-based or functional assay.
UniProt Q61006, sequence (Q61006 22-868): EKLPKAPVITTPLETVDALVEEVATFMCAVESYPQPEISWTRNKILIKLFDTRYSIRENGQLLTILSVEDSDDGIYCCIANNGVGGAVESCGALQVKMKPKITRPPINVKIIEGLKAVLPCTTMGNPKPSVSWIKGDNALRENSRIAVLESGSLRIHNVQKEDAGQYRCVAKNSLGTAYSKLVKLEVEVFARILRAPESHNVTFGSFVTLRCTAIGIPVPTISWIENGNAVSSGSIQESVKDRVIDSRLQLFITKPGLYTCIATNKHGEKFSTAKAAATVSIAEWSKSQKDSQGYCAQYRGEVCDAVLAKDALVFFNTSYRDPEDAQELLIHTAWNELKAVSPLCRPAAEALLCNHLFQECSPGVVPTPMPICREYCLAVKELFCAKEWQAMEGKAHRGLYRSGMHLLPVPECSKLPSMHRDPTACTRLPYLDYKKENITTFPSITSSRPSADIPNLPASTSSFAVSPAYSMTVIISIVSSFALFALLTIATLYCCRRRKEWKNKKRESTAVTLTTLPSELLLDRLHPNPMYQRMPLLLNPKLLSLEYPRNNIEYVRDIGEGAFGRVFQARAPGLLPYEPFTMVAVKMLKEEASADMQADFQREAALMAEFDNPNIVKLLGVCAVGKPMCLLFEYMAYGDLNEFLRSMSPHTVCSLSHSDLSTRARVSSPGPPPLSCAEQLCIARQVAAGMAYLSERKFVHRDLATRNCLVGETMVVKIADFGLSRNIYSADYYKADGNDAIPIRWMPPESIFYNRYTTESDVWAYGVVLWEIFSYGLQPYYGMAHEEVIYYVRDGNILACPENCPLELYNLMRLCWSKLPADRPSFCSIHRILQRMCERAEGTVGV

Turning to “agrin (isoform not stated at that place) (ligand)”, the tyrosine phosphorylation of MuSK in myotubes, dose is 1 nM.
